These results are taken from patent publication US20020065240A1.

This test concerns the target VEGF mitogenic receptors. As to the kind of experiment: cell-based or functional assay.

“purified human VEGF165 (R&D Systems, expressed in Sf21 cells) (from UniProt P15692 27-191) (ligand)” had a half-maximal activity, HUVEC mitogenesis ([3H]thymidine incorporation) of 17 to 19 ng/mL.
